Values belong to the binder of their own block, whether it stands above or below them. Numbered stars: 1 amine (or outer) side, 2 acyl side, 3 side chain; on linkers, the order of the positions; unused ones are H or OH. Bridge positions count the residues as written; N and C are the ends. Square brackets hold non-standard residues; d marks the D form. Primed or numbered codes have the meaning given here. * marks the point of attachment. Ttds″ = 1,13-diamino-4,7,10-trioxatridecan-succinamic acid spacer, O=C(CCC(=O)[*:2])NCCCOCCOCCOCCCN[*:1]; N4Ac = 6-Carboxy-1,4,8,11-tetraazaundecane, an N4-chelator, NCCNCC(CNCCN)C(=O)*; mXylylene = c1cc(C[*:1])cc(C[*:2])c1; 4Pal = N[C@@H](Cc1ccncc1)C(=O)O; Nle = CCCC[C@H](N)C(=O)O; Hexanoyl = CCCCCC(=O)*
Key:
[1] = molecular target: T1, Cathepsin F (UniProt Q9UBX1); assay: cell-based or functional assay
T1 sequence (looked up): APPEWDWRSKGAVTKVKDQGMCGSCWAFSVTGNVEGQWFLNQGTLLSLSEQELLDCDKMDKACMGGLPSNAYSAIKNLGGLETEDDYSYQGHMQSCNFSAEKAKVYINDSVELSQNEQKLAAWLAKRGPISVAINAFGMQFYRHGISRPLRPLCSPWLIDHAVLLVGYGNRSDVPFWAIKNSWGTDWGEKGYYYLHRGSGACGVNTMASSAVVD

[2] = molecular target: human fibroblast activation protein (FAP) on WI-38 fibroblasts (human) (UniProt Q12884); assay: competitive FACS, WI-38 cells, Cy5-labeled peptide as competitor; C = pIC50 6.1 to 7.0
[3] = molecular target: fibroblast activation protein (FAP) on FAP-expressing human WI-38 fibroblasts (human), Q12884; assay: competitive FACS, WI-38 cells, vs Cy5 tracer m3; A = pIC50 >8.0; conditions: remark: other sources report otherwise

Percentage inhibition (%), reference at 1 µM [1]: 74%
B1: Cystatin C (protein, UniProt P01034 27-146, looked up)
chain: SSPGKPPRLVGGPMDASVEEEGVRRALDFAVGEYNKASNDMYHSRALQVVRARKQIVAGVNYFLDVELGRTTCTKTQPNLDNCPFHDQPHLKRKAFCSFQIYAVPWQGTMTLSKSTCQDA

pIC50 [2]: 6.1 to 7 pic50
B2: N4Ac-Ttds-Nle-[Cys-(3MeBn)-Pro-Pro-Thr-Glu-Ppa-Cys]-OH (peptide)
peptide: N4Ac-[Ttds″][Nle]CPPTE[4Pal]C-OH
modifications: linker 3-9 via mXylylene
SMILES: CCCC[C@H](NC(=O)CCC(=O)NCCCOCCOCCOCCCNC(=O)C(CNCCN)CNCCN)C(=O)N[C@H]1CSCc2cccc(c2)CSC[C@@H](C(=O)O)NC(=O)[C@H](Cc2ccncc2)NC(=O)[C@H](CCC(=O)O)NC(=O)[C@H]([C@@H](C)O)NC(=O)[C@@H]2CCCN2C(=O)[C@@H]2CCCN2C1=O

pIC50 Category (FACS) [3]: > 8 pIC50
B3: Hex-[Cys(3MeBn)-Pro-Pro-Thr-Glu-Phe-Cys]-Asp-NH2 (peptide)
peptide: Hexanoyl-CPPTEFCD-NH2
modifications: linker 1-7 via mXylylene
SMILES: CCCCCC(=O)N[C@H]1CSCc2cccc(c2)CSC[C@@H](C(=O)N[C@@H](CC(=O)O)C(N)=O)NC(=O)[C@H](Cc2ccccc2)NC(=O)[C@H](CCC(=O)O)NC(=O)[C@H]([C@@H](C)O)NC(=O)[C@@H]2CCCN2C(=O)[C@@H]2CCCN2C1=O
